Assay results as given in patent US20080176285.

Key:
[1] = molecular target: porcine uteroferrin (UniProt P09889)
[2] = molecular target: RNAse B (UniProt P61823)
[3] = test system: cathepsin D

Chain of UniProt P09889 (P09889 22-340): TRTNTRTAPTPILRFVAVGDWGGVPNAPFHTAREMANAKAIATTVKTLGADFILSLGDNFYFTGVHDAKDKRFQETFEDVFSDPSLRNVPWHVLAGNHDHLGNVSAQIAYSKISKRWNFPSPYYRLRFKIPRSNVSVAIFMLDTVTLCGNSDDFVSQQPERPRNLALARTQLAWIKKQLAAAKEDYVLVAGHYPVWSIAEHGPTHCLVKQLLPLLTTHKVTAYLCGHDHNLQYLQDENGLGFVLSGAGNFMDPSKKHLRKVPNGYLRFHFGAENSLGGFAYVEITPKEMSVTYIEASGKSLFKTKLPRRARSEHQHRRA
Chain of UniProt P61823 (P61823 27-150): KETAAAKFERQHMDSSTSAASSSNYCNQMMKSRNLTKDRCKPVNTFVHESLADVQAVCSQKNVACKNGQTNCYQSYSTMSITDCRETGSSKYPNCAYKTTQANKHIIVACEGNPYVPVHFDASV

In the case of “bovine GlcNAc-phosphotransferase (UDP-N-acetylglucosamine: lysosomal enzyme N-acetylglucosamine-1-phosphotransferase)”, the “Km as acceptor for the transfer of GlcNAc-1-P” value (“Km as acceptor … of GlcNAc-1-P” for short) [1] was “Kms below 20 µM”, the “Km as acceptor … of GlcNAc-1-P” value [2] was “the Km was not reached at the solubility limit of the protein (at 600 µM)” and the “Km as acceptor … of GlcNAc-1-P” value [3] was “Kms below 20 µM”.
